Assay results: article PMC6972931, “YqfB protein from Escherichia coli: an atypical amidohydrolase active towards N^4-acylcytosine derivatives” (Scientific Reports, 2020)

Key:
Assay in all cases: spectrophotometric hydrolysis assay, fit with product inhibition
Assay type in all cases: biochemical, Escherichia coli
Conditions in all cases: 50 mM potassium phosphate, pH 8.0, 22 °C
CC(=O)Nc1cc[nH]c(=O)n1 = tested on: T1, CC(=O)Nc1cc[nH]c(=O)n1
T1 construct: full length (103 residues), C-terminal His6 kept, pET21b, expressed in E. coli BL21(DE3) yqfB::Km, monomer
Text: (§1) spectrophotometric hydrolysis assay, fit with product inhibition on YqfB with a C-terminal His6 tag

[1] = tested on: T2, CC(=O)Nc1ccn([C@@H]2O[C@H](CO)[C@@H](O)[C@H]2O)c(=O)n1
T2 construct: full length (103 residues), C-terminal His6 kept, pET21b, expressed in E. coli BL21(DE3) yqfB::Km, monomer
Text: as §1

[2] = substrate: CC(=O)Nc1cc[nH]c(=O)n1
Text: as §1

[3] = substrate: CC(=O)Nc1ccn([C@@H]2O[C@H](CO)[C@@H](O)[C@H]2O)c(=O)n1
Text: as §1

[4] = substrate: CC(=O)Nc1ccn([C@H]2C[C@H](O)[C@@H](CO)O2)c(=O)n1
Text: as §1

[5] = substrate: CC(=O)Nc1nc(O)ncc1F
Text: as §1

[6] = substrate: CC(C)C(=O)Nc1ccn([C@H]2C[C@H](O)[C@@H](CO)O2)c(=O)n1
Text: as §1

[7] = substrate: CCCCCC(=O)Nc1ccn([C@H]2C[C@H](O)[C@@H](CO)O2)c(=O)n1
Text: as §1

[8] = substrate: CCCCCOC(=O)Nc1nc(=O)n([C@@H]2O[C@H](C)[C@@H](O)[C@H]2O)cc1F
Text: as §1

[9] = substrate: O=C(Nc1ccn([C@@H]2O[C@H](CO)[C@@H](O)[C@H]2O)c(=O)n1)c1ccccc1
Text: as §1

[10] = substrate: O=C(Nc1ccn([C@H]2C[C@H](O)[C@@H](CO)O2)c(=O)n1)c1ccccc1
Text: as §1

[11] = substrate: CC(=O)Nc1ccn([C@@H]2O[C@H](CO)[C@@H](O)[C@H]2O)c(=O)n1; remark: listed apart in the source
Text: spectrophotometric hydrolysis assay, fit with product inhibition on recombinant wild-type YqfB (tag-free)

[12] = substrate: CC(=O)Nc1ccn([C@@H]2O[C@H](CO)[C@@H](O)[C@H]2O)c(=O)n1; remark: listed apart in the source
Text: spectrophotometric hydrolysis assay, fit with product inhibition on recombinant YqfB with an N-terminal His6 tag

For “YqfB with a C-terminal His6 tag (Escherichia coli K-12; E74A)”, the Km (CC(=O)Nc1cc[nH]c(=O)n1) was “(3.0 ± 0.02) × 10^−4 M”, the kcat (CC(=O)Nc1cc[nH]c(=O)n1) was 0.22 ± 0.001 s⁻¹ and the kcat/Km (CC(=O)Nc1cc[nH]c(=O)n1) was 700 ± 4 M⁻¹ s⁻¹. For the same molecule, the Km [1] was “(2.0 ± 0.03) × 10^−6 M”, the kcat [1] was 0.07 ± 0.0006 s⁻¹ and the kcat/Km [1] was 30000 ± 500 M⁻¹ s⁻¹.

“YqfB with a C-terminal His6 tag (Escherichia coli K-12; H70A)” was tested, and the Km [1] was “(5.0 ± 0.02) × 10^−5 M”, the kcat [1] was 23 ± 0.029 s⁻¹ and the kcat/Km [1] was 400000 ± 2000 M⁻¹ s⁻¹.

“YqfB with a C-terminal His6 tag (Escherichia coli K-12; D27A)” was tested, and the Km [1] was “(2.9 ± 0.11) × 10^−4 M”, the kcat [1] was 300 ± 16 s⁻¹ and the kcat/Km [1] was 1.2e+06 ± 10000 M⁻¹ s⁻¹.

For “YqfB with a C-terminal His6 tag (Escherichia coli K-12; Y89A)”, the Km [1] was “(2.2 ± 0.06) × 10^−3 M”, the kcat [1] was 40 ± 1.3 s⁻¹ and the kcat/Km [1] was 19000 ± 900 M⁻¹ s⁻¹.

B1: YqfB with a C-terminal His6 tag (Escherichia coli K-12) (protein)
chain: MQPNDITFFQRFQDDILAGRKTITIRDESESHFKTGDVLRVGRFEDDGYFCTIEVTATSTVTLDTLTEKHAEQENMTLTELKKVIADIYPGQTQFYVIEFKCL
notes: full length (103 residues), C-terminal His6 kept, pET21b, expressed in E. coli BL21(DE3) yqfB::Km, monomer
For B1, the Km [2] was “(7.0 ± 0.2) × 10^−5 M”, the Km [3] was “(6.2 ± 0.1) × 10^−5 M” and the kcat [3] was 157 ± 1 s⁻¹. The kcat/Km [3] was 2.2e+06 ± 100000 M⁻¹ s⁻¹, the Km [4] was “(4.00 ± 0.04) × 10^−4 M” and the kcat [4] was 101 ± 1 s⁻¹. The kcat/Km [4] was 230000 ± 2000 M⁻¹ s⁻¹, the Km [5] was “(2.1 ± 0.2) × 10^−3 M” and the kcat [5] was 90 ± 7 s⁻¹. The kcat/Km [5] was 40000 ± 3000 M⁻¹ s⁻¹, the Km [6] was “(1.9 ± 0.08) × 10^−3 M” and the kcat [6] was 75 ± 3 s⁻¹. The kcat/Km [6] was 37500 ± 600 M⁻¹ s⁻¹, the Km [7] was “(1.4 ± 0.1) × 10^−4 M” and the Km [8] was “(7.0 ± 0.2) × 10^−4 M”. The kcat [8] was 0.016 ± 0.003 s⁻¹, the kcat/Km [8] was 22 ± 0.1 M⁻¹ s⁻¹ and the Km [9] was “(5.1 ± 0.03) × 10^−3 M”. For the same molecule, the Km [10] was “(3.00 ± 0.01) × 10^−4 M”, the kcat [10] was 0.07 ± 0.01 s⁻¹ and the kcat/Km [10] was 230 ± 10 M⁻¹ s⁻¹.

B2: recombinant wild-type YqfB (tag-free) (Escherichia coli K-12) (protein)
chain: MQPNDITFFQRFQDDILAGRKTITIRDESESHFKTGDVLRVGRFEDDGYFCTIEVTATSTVTLDTLTEKHAEQENMTLTELKKVIADIYPGQTQFYVIEFKCL
notes: full length (103 residues), no tag, pET21b-yqfB
In the case of B2, the Km [11] is reported as “(7.0 ± 0.1) × 10^−5 M”, the kcat [11] is reported as 196 ± 1 s⁻¹ and the kcat/Km [11] is reported as 2.8e+06 ± 300000 M⁻¹ s⁻¹.

B3: recombinant YqfB with an N-terminal His6 tag (Escherichia coli K-12) (protein)
chain: MQPNDITFFQRFQDDILAGRKTITIRDESESHFKTGDVLRVGRFEDDGYFCTIEVTATSTVTLDTLTEKHAEQENMTLTELKKVIADIYPGQTQFYVIEFKCL
notes: full length (103 residues), N-terminal His6 kept, pETDuet-1, expressed in E. coli BL21(DE3) yqfB::Km
B3 was tested, and the Km [12] was “(7.0 ± 0.1) × 10^−5 M”, the kcat [12] was 154 ± 3 s⁻¹ and the kcat/Km [12] was 2.5e+06 ± 200000 M⁻¹ s⁻¹.
